Tests used:
[1] = biological target: mouse thyroid-stimulating hormone receptor (TSHR) (mouse) (UniProt P47750); experiment: flow cytometry (FACS), 293 cells overexpressing mouse TSHR; negative control
[2] = biological target: monkey thyroid-stimulating hormone receptor (TSHR) (monkey); experiment: flow cytometry (FACS), 293 cells overexpressing monkey TSHR; negative control
[3] = biological target: human thyroid-stimulating hormone receptor (TSHR) (human) (UniProt P16473); experiment: flow cytometry (FACS), 293 cells overexpressing human TSHR; negative control
Chain of human thyroid-stimulating hormone receptor (TSHR) (human) (P16473 21-764): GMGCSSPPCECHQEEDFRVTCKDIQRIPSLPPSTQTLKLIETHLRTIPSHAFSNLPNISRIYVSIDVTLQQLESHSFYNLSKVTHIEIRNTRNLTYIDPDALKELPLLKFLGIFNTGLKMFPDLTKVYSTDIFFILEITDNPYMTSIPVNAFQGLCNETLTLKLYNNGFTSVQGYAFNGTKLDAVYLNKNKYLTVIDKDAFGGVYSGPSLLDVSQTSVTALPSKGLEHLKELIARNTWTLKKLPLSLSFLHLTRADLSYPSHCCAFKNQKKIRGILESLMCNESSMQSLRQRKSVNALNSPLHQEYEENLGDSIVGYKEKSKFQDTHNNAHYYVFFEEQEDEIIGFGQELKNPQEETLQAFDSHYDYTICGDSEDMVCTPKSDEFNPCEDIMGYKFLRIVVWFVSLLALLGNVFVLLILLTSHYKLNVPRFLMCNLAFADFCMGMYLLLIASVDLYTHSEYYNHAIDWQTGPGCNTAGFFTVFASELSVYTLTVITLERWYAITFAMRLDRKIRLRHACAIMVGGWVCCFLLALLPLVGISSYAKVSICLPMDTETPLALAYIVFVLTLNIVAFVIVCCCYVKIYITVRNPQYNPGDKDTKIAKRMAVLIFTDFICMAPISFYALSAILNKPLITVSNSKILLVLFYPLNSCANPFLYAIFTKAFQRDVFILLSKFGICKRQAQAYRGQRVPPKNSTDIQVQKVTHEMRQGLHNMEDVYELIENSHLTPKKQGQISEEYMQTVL

Chain of mouse thyroid-stimulating hormone receptor (TSHR) (mouse) (P47750 22-764): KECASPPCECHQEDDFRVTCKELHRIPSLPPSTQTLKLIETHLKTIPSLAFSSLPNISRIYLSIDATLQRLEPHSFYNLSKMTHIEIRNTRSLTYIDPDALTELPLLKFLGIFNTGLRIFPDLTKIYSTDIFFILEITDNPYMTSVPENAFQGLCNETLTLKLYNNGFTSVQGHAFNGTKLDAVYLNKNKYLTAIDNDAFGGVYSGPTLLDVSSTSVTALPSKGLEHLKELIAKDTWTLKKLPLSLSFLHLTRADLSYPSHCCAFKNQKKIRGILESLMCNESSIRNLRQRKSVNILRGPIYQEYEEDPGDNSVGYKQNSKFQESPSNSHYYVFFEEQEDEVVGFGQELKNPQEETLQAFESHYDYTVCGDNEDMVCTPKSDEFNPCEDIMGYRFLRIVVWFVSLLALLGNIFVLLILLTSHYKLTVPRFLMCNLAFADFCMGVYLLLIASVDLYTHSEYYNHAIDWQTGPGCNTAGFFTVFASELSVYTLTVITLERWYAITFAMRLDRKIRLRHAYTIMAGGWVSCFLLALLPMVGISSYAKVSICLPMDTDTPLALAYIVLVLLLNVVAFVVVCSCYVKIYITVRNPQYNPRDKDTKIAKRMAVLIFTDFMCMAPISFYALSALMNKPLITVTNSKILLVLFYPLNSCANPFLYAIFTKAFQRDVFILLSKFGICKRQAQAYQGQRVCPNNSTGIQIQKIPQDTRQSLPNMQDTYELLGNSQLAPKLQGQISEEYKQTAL
Chain of monkey thyroid-stimulating hormone receptor (TSHR) (monkey) (A0A2K5 entry or part of it limits assumed, form in doubt): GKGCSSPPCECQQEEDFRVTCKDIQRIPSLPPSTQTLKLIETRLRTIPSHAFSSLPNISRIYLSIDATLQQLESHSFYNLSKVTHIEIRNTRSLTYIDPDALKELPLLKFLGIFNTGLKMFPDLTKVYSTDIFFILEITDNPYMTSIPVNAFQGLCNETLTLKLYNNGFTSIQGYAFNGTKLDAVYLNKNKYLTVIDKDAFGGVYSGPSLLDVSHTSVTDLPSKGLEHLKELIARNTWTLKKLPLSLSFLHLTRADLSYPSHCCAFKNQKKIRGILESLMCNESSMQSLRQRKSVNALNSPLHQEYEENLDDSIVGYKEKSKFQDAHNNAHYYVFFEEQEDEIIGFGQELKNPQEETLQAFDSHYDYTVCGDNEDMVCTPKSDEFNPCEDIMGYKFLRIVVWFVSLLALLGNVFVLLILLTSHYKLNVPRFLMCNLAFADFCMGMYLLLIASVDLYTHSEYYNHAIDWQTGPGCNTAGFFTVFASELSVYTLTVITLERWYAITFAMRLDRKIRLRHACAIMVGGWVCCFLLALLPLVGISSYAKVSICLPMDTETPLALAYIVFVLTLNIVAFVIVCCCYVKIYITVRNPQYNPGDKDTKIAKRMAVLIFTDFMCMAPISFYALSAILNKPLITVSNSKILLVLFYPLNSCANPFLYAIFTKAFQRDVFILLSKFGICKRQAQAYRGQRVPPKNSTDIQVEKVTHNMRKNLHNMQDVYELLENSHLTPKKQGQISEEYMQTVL

Substance	Max MFI [1]	Max MFI [2]	Max MFI [3]
hIgG1 negative control (Biointron B117901) (antibody)	2130	3560	3590
hIgG4 negative control (Biointron B107804) (antibody)	1530	1770	1690
